T1: VEGF110 (hVEGF110, aa 207-318) (human, UniProt P15692 207-318)
T1 sequence (looked up): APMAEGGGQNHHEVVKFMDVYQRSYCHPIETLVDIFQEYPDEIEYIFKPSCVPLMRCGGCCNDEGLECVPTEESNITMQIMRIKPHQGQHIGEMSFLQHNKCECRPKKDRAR

T2: VEGF121 (hVEGF121, aa 207-327) (human, UniProt P15692 207-327)
T2 chain: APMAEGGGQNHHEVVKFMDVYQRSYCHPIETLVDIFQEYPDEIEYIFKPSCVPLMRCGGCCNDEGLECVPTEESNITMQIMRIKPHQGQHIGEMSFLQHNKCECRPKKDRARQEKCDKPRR

B1: REGN7991 (hVEGF minitrap-G4Sx9-hVEGF minitrap) (receptor)
chain: SDTGRPFVEMYSEIPEIIHMTEGRELVIPCRVTSPNITVTLKKFPLDTLIPDGKRIIWDSRKGFIISNATYKEIGLLTCEATVNGHLYKTNYLTHRQTNTIIDVVLSPSHGIELSVGEKLVLNCTARTELNVGIDFNWEYPSSKHQHKKLVNRDLKTQSGSEMKKFLSTLTIDGVTRSDQGLYTCAASSGLMTKKNSTFVRVHEKGGGGSGGGGSGGGGSGGGGSGGGGSGGGGSGGGGSGGGGSGGGGSSDTGRPFVEMYSEIPEIIHMTEGRELVIPCRVTSPNITVTLKKFPLDTLIPDGKRIIWDSRKGFIISNATYKEIGLLTCEATVNGHLYKTNYLTHRQTNTIIDVVLSPSHGIELSVGEKLVLNCTARTELNVGIDFNWEYPSSKHQHKKLVNRDLKTQSGSEMKKFLSTLTIDGVTRSDQGLYTCAASSGLMTKKNSTFVRVHEK
notes: Monomeric single chain, no tag; also called REGN7991 (G4Sx9 linker); single chain mini-trap with (G4S)9, no tag
B2: REGN7080 (VEGF minitrap-G4Sx6-VEGF minitrap mmH) (receptor)
chain: SDTGRPFVEMYSEIPEIIHMTEGRELVIPCRVTSPNITVTLKKFPLDTLIPDGKRIIWDSRKGFIISNATYKEIGLLTCEATVNGHLYKTNYLTHRQTNTIIDVVLSPSHGIELSVGEKLVLNCTARTELNVGIDFNWEYPSSKHQHKKLVNRDLKTQSGSEMKKFLSTLTIDGVTRSDQGLYTCAASSGLMTKKNSTFVRVHEKGGGGSGGGGSGGGGSGGGGSGGGGSGGGGSSDTGRPFVEMYSEIPEIIHMTEGRELVIPCRVTSPNITVTLKKFPLDTLIPDGKRIIWDSRKGFIISNATYKEIGLLTCEATVNGHLYKTNYLTHRQTNTIIDVVLSPSHGIELSVGEKLVLNCTARTELNVGIDFNWEYPSSKHQHKKLVNRDLKTQSGSEMKKFLSTLTIDGVTRSDQGLYTCAASSGLMTKKNSTFVRVHEKEQKLISEEDLGGEQKLISEEDLHHHHHH
notes: Monomeric single chain; also called REGN7080 (G4Sx6 linker); single chain mini-trap with (G4S)6 linker and C-terminal mmH tag
B3: REGN7850 (VEGF mini-trap-hFc …) (receptor)
chain: SDTGRPFVEMYSEIPEIIHMTEGRELVIPCRVTSPNITVTLKKFPLDTLIPDGKRIIWDSRKGFIISNATYKEIGLLTCEATVNGHLYKTNYLTHRQTNTIIDVVLSPSHGIELSVGEKLVLNCTARTELNVGIDFNWEYPSSKHQHKKLVNRDLKTQSGSEMKKFLSTLTIDGVTRSDQGLYTCAASSGLMTKKNSTFVRVHEKDKTHTCPPCPPC
notes: Recombinant homodimer; also called REGN7850 (CPPCPPC)
B4: REGN7992 (hVEGF minitrap-G4Sx12-hVEGF minitrap) (receptor)
chain: SDTGRPFVEMYSEIPEIIHMTEGRELVIPCRVTSPNITVTLKKFPLDTLIPDGKRIIWDSRKGFIISNATYKEIGLLTCEATVNGHLYKTNYLTHRQTNTIIDVVLSPSHGIELSVGEKLVLNCTARTELNVGIDFNWEYPSSKHQHKKLVNRDLKTQSGSEMKKFLSTLTIDGVTRSDQGLYTCAASSGLMTKKNSTFVRVHEKGGGGSGGGGSGGGGSGGGGSGGGGSGGGGSGGGGSGGGGSGGGGSGGGGSGGGGSGGGGSSDTGRPFVEMYSEIPEIIHMTEGRELVIPCRVTSPNITVTLKKFPLDTLIPDGKRIIWDSRKGFIISNATYKEIGLLTCEATVNGHLYKTNYLTHRQTNTIIDVVLSPSHGIELSVGEKLVLNCTARTELNVGIDFNWEYPSSKHQHKKLVNRDLKTQSGSEMKKFLSTLTIDGVTRSDQGLYTCAASSGLMTKKNSTFVRVHEK
notes: Monomeric single chain, no tag; also called REGN7992 (G4Sx12 linker); single chain mini-trap with (G4S)12, no tag
B5: REGN6824 (hVEGF minitrap-G4Sx3-hVEGF minitrap-mmH) (receptor)
chain: SDTGRPFVEMYSEIPEIIHMTEGRELVIPCRVTSPNITVTLKKFPLDTLIPDGKRIIWDSRKGFIISNATYKEIGLLTCEATVNGHLYKTNYLTHRQTNTIIDVVLSPSHGIELSVGEKLVLNCTARTELNVGIDFNWEYPSSKHQHKKLVNRDLKTQSGSEMKKFLSTLTIDGVTRSDQGLYTCAASSGLMTKKNSTFVRVHEKGGGGSGGGGSGGGGSSDTGRPFVEMYSEIPEIIHMTEGRELVIPCRVTSPNITVTLKKFPLDTLIPDGKRIIWDSRKGFIISNATYKEIGLLTCEATVNGHLYKTNYLTHRQTNTIIDVVLSPSHGIELSVGEKLVLNCTARTELNVGIDFNWEYPSSKHQHKKLVNRDLKTQSGSEMKKFLSTLTIDGVTRSDQGLYTCAASSGLMTKKNSTFVRVHEKEQKLISEEDLGGEQKLISEEDLHHHHHH
notes: Monomeric single chain; also called REGN6824 (G4Sx3 linker); single chain mini-trap with (G4S)3 linker and C-terminal mmH tag
B6: REGN7851 (VEGF mini-trap-hFc …) (receptor)
chain: SDTGRPFVEMYSEIPEIIHMTEGRELVIPCRVTSPNITVTLKKFPLDTLIPDGKRIIWDSRKGFIISNATYKEIGLLTCEATVNGHLYKTNYLTHRQTNTIIDVVLSPSHGIELSVGEKLVLNCTARTELNVGIDFNWEYPSSKHQHKKLVNRDLKTQSGSEMKKFLSTLTIDGVTRSDQGLYTCAASSGLMTKKNSTFVRVHEKDKTHTCPPCPPCPPC
notes: Recombinant homodimer; also called REGN7851 (CPPCPPCPPC)
B7: REGN7483^F (homodimer mini-trap, FabRICATOR cleaved from aflibercept) (receptor)
chain: SDTGRPFVEMYSEIPEIIHMTEGRELVIPCRVTSPNITVTLKKFPLDTLIPDGKRIIWDSRKGFIISNATYKEIGLLTCEATVNGHLYKTNYLTHRQTNTIIDVVLSPSHGIELSVGEKLVLNCTARTELNVGIDFNWEYPSSKHQHKKLVNRDLKTQSGSEMKKFLSTLTIDGVTRSDQGLYTCAASSGLMTKKNSTFVRVHEKDKTHTCPPCPAPELLG
modifications: N-linked glycans at N36, N68, N123, N196 (Table C)
notes: Disulfide-linked homodimer made by IdeS cleavage of aflibercept; also called dimer mini-trap from FabRICATOR (IdeS) cleavage of REGN3
B8: REGN7483^R (homodimer mini-trap, recombinant) (receptor)
chain: B7 chain
modifications: N-linked glycans at N36, N68, N123, N196 (Table C)
notes: also called Recombinant dimer mini-trap

Target: T3, human VEGF165 (REGN110) (human, UniProt P15692 207-395)
T3 construct: also called hVEGF165; hVEGF165(M1-R191)
Experiment: SPR, Biacore, 25 C; trap captured on anti-VEGFR1 mAb surface, hVEGF165 injected
Experimental: (§1) Experimental Procedure. Equilibrium dissociation constants (KD values) for human VEGF₁₆₅ binding to various purified VEGF mini-trap constructs were determined using a real-time surface plasmon resonance biosensor using a Biacore 3000 instrument. All binding studies were performed in 10 mM HEPES, 150 mM NaCl, 3 mM EDTA, and 0.05% v/v Surfactant Tween-20, pH 7.4 (HBS-ET) running buffer at 25° C. The Biacore sensor surface was first derivatized by amine coupling with a monoclonal mouse anti-VEGFR1 antibody to capture VEGF mini-trap constructs. Binding studies were performed on the human VEGF reagent, human VEGF₁₆₅ (human VEGF₁₆₅; SEQ ID NO: 31). Different concentrations of VEGF₁₆₅ reagent, prepared in HBS-ET running buffer (2 nM — 62.5 pM; 2-fold serial dilution for human VEGF₁₆₅), were injected over an anti-VEGFR1-captured VEGF mini-trap construct surface for 1.8 minutes at a flow rate of 90 μL/minute, while the dissociation of VEGF mini-trap constructs bound VEGF₁₆₅ reagent was monitored for 60 minutes in HBS-ET running buffer. Kinetic association (kₐ) and dissociation (kd) rate constants were determined by fitting the real-time sensorgrams to a 1:1 binding model using Scrubber 2.0c curve fitting software. Binding dissociation equilibrium constants (KD) and dissociative half-lives (t½) were calculated from the kinetic rate constants as: […]

Binder	2nM hVEGF165 Bound [RU]
B1	40
B2	36
B3	56
B4	22
B5	33
B6	51

Target: T3, human VEGF165 (REGN110)
Experiment: SPR, Biacore 3000, 25 C; trap captured on anti-VEGFR1 mAb surface, hVEGF165 injected; 1:1 fit

Binder	Kd [nM]	koff [s⁻¹]	kon [M⁻¹ s⁻¹]	t½ (dissociative half-life) [min]
B2	0.0715	0.000387	5.41e+06	29.8
B7	≤ 0.00132	≤ 1e-05	7.58e+06	≥ 1160
B8	≤ 0.00158	≤ 1e-05	6.3e+06	≥ 1160
B5	0.0861	0.000554	6.44e+06	20.9

Target: T3, human VEGF165 (REGN110)
Experiment: SPR, Biacore, 25 C; trap captured on anti-VEGFR1 mAb surface, hVEGF165 injected; 1:1 fit
Experimental: as §1

Binder	Kd [pM]	koff [s⁻¹]	kon [M⁻¹ s⁻¹]	t1/2 (dissociative half-life) [min]
B1	13.8	9.79e-05	7.1e+06	118
B2	71.5	0.000387	5.41e+06	29.8
B7	1.32	≥ 1e-05	7.59e+06	≥ 1160
B8	1.59	≥ 1e-05	6.3e+06	≥ 1160
B3	1.55	≥ 1e-05	6.46e+06	≥ 1160
B4	15.3	9.7e-05	6.3e+06	119
B5	86.1	0.000554	6.44e+06	20.9
B6	1.81	≥ 1e-05	5.51e+06	≥ 1160

Target: T1, VEGF110 (hVEGF110, aa 207-318)
Experiment: cell-based or functional assay

Binder	IC50 (M), inhibition of VEGFR1 signaling (luciferase), 20 pM VEGF110 [M]
B2	1.61e-10
B5	2.22e-10

Target: T2, VEGF121 (hVEGF121, aa 207-327)
Experiment: cell-based or functional assay

Binder	IC50 (M), inhibition of VEGFR1 signaling (luciferase), 20 pM VEGF121 [M]
B2	1.66e-10
B5	2.44e-10

Target: T3, human VEGF165 (REGN110)
Experiment: SPR, Biacore 3000, 25 C; trap captured on anti-VEGFR1 mAb surface, hVEGF165 injected

Binder	100 nM hVEGF165 Bound [RU]
B2	36
B5	33

Target: T1, VEGF110 (hVEGF110, aa 207-318)
Experiment: cell-based or functional assay
Remark: another data set of the same source

Binder	IC50 (M), inhibition of VEGFR1 signaling (luciferase), 20 pM VEGF110 [M]
B1	7.88e-11
B4	3.42e-11

Target: T2, VEGF121 (hVEGF121, aa 207-327)
Experiment: cell-based or functional assay
Remark: another data set of the same source

Binder	IC50 (M), inhibition of VEGFR1 signaling (luciferase), 20 pM VEGF121 [M]
B1	7.71e-11
B4	2.37e-11

Target: T1, VEGF110 (hVEGF110, aa 207-318)
Experiment: cell-based or functional assay
Remark: another data set of the same source

Binder	IC50 (M), inhibition of VEGFR1 signaling (luciferase), 20 pM VEGF110 [M]
B7	1.04e-11
B8	1.3e-11
B3	1.22e-11
B6	1.45e-11

Target: T2, VEGF121 (hVEGF121, aa 207-327)
Experiment: cell-based or functional assay
Remark: another data set of the same source

Binder	IC50 (M), inhibition of VEGFR1 signaling (luciferase), 20 pM VEGF121 [M]
B3	1.66e-11
B6	1.83e-11

Target: T3, human VEGF165 (REGN110)
Experiment: cell-based or functional assay
Target sequence in this assay (P15692 other isoform, or with tags, fused parts or gaps): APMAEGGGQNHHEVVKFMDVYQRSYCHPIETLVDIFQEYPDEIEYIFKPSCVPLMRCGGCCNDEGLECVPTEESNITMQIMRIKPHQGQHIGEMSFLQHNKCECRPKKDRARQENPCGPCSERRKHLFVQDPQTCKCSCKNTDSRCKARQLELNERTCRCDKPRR

Binder	IC50 (M), inhibition of VEGFR1 signaling (luciferase), 20 pM VEGF165 [M]
B7	1.23e-11
B8	1.92e-11
B3	2.99e-11
B6	2.68e-11

Reference: US20230063116A1 (Regeneron, published 2023)
